Data published in US20240261333A1, “NOVEL TARGETS FOR ENHANCING ANTI-TUMOR IMMUNITY” (THE BROAD INSTITUTE, INC., priority 2021, published 2024).

Assays:
EIF3A (human) = EIF3A (human) (UniProt Q14152); assay: control IP with IgG, lysate of cells with N-FLAG B3GNT2, mass spectrometry
RPS14 (human) = RPS14 (human) (UniProt P62263); assay: as above
IL13RA2 (human) = IL13RA2 (human) (UniProt Q14627); assay: as above
DDX1 (human) = DDX1 (human) (UniProt Q92499); assay: as above
LCN1 (human) = LCN1 (human) (UniProt P31025); assay: as above
PKM (human) = PKM (human) (UniProt P14618); assay: as above
RPS27A (human) = RPS27A (human) (UniProt P62979); assay: as above
RACK1 (human) = RACK1 (human) (UniProt P63244); assay: as above
CHCHD3 (human) = CHCHD3 (human) (UniProt Q9NX63); assay: as above
KCTD5 (human) = KCTD5 (human) (UniProt Q9NXV2); assay: as above
TBL2 (human) = TBL2 (human) (UniProt Q9Y4P3); assay: as above
FLG (human) = FLG (human) (UniProt P20930); assay: as above
HNRNPM (human) = HNRNPM (human) (UniProt P52272); assay: as above
MAP4 (human) = MAP4 (human) (UniProt P27816); assay: as above
RPL23 (human) = RPL23 (human) (UniProt P62829); assay: as above
RPL8 (human) = RPL8 (human) (UniProt P62917); assay: as above
TPM3 (human) = TPM3 (human) (UniProt P06753); assay: as above
GSN (human) = GSN (human) (UniProt P06396); assay: as above
PPFIBP1 (human) = PPFIBP1 (human) (UniProt Q86W92); assay: as above
YBX1 (human) = YBX1 (human) (UniProt P67809); assay: as above
SYNCRIP (human) = SYNCRIP (human) (UniProt O60506); assay: as above
RPS26 (human) = RPS26 (human) (UniProt P62854); assay: as above
RHOT2 (human) = RHOT2 (human) (UniProt Q8IXI1); assay: as above
GBF1 (human) = GBF1 (human) (UniProt Q92538); assay: as above
RPL38 (human) = RPL38 (human) (UniProt P63173); assay: as above
TELO2 (human) = TELO2 (human) (UniProt Q9Y4R8); assay: as above
RPL7 (human) = RPL7 (human) (UniProt P18124); assay: as above
CCT3 (human) = CCT3 (human) (UniProt P49368); assay: as above
SYNPO (human) = SYNPO (human) (UniProt Q8N3V7); assay: as above
DHX9 (human) = DHX9 (human) (UniProt Q08211); assay: as above
RPL28 (human) = RPL28 (human) (UniProt P46779); assay: as above
SLIRP = SLIRP (UniProt Q9GZT3); assay: co-IP with mouse IgG control, mass spectrometry; lysate of N-FLAG B3GNT2 cells
EEF1A1 = EEF1A1 (UniProt P68104); assay: as above
RPL36 = RPL36 (UniProt Q9Y3U8); assay: as above
CTSD = CTSD (UniProt P07339); assay: as above
FABP5 = FABP5 (UniProt Q01469); assay: as above
HNRNPA1 = HNRNPA1 (UniProt P09651); assay: as above
UBA52 = UBA52 (UniProt P62987); assay: as above
YWHAZ = YWHAZ (UniProt P63104); assay: as above
Chain of YWHAZ (P63104 whole entry): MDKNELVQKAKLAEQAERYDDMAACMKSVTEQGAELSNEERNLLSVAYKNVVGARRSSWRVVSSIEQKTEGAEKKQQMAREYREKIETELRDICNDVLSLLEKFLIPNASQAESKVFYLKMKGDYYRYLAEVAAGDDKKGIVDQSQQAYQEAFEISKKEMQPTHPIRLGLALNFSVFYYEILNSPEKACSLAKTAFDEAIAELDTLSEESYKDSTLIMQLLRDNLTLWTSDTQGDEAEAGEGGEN

Chain of EEF1A1 (P68104 2-462 limits assumed): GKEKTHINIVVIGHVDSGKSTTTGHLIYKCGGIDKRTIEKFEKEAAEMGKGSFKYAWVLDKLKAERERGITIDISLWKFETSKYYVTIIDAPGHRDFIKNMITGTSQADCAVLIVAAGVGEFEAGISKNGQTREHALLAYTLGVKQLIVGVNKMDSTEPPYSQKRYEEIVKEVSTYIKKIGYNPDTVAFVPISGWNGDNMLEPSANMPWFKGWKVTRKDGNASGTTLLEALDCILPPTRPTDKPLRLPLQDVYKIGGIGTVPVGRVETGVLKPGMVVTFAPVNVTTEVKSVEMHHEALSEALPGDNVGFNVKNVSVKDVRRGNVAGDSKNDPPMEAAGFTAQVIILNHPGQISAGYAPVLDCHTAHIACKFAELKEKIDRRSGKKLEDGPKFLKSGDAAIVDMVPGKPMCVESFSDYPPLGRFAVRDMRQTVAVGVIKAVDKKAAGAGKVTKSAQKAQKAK
Chain of DHX9 (human) (Q08211 whole entry): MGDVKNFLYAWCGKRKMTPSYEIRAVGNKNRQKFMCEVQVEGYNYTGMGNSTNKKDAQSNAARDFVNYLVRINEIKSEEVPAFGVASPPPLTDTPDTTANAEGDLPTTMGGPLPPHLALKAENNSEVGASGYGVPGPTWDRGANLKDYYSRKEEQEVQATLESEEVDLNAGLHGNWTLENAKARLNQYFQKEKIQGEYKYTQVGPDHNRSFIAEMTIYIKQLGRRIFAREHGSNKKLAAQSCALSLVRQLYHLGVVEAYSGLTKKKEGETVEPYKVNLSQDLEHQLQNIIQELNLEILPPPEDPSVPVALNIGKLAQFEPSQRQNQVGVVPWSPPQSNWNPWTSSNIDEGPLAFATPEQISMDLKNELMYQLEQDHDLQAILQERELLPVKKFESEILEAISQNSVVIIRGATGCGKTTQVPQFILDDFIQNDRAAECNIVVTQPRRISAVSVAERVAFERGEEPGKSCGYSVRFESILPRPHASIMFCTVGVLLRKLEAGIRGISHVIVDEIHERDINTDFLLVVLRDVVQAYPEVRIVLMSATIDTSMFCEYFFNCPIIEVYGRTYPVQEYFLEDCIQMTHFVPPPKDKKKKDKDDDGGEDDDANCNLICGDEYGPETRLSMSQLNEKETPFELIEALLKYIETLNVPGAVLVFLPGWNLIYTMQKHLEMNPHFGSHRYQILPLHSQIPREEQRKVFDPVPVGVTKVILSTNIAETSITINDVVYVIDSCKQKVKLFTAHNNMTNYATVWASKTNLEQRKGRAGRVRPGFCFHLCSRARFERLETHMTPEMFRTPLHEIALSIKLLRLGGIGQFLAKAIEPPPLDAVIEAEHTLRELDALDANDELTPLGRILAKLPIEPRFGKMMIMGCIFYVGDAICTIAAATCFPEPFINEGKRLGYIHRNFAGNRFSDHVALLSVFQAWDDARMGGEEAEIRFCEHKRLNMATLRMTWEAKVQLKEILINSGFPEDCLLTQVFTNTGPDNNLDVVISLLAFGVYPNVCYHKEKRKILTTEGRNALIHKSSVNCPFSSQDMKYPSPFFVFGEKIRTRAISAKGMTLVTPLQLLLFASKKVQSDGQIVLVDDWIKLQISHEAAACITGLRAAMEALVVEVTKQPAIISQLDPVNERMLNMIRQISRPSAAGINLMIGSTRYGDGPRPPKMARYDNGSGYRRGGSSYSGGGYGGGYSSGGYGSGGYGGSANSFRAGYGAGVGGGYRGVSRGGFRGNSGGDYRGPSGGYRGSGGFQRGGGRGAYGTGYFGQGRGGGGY
Chain of TPM3 (human) (P06753 other isoform, or with tags, fused parts or gaps limits assumed): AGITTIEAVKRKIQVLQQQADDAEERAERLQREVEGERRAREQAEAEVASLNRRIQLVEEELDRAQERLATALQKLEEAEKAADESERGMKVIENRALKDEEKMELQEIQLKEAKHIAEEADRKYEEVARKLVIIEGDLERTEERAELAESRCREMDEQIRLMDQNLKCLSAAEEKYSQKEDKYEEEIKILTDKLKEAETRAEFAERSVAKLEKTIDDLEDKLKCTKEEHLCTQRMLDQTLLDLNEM
Chain of IL13RA2 (human) (Q14627 27-380 limits assumed): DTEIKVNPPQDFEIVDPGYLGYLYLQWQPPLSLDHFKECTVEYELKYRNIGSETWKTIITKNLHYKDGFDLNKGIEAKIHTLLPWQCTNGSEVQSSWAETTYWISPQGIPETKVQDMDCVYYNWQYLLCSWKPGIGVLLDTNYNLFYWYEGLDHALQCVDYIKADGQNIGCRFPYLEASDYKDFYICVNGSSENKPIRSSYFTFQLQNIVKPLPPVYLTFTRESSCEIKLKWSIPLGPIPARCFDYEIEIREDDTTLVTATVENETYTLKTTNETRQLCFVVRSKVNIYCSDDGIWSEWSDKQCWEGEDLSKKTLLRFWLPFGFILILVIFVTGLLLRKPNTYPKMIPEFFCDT
Chain of SYNCRIP (human) (O60506 other isoform, or with tags, fused parts or gaps limits assumed): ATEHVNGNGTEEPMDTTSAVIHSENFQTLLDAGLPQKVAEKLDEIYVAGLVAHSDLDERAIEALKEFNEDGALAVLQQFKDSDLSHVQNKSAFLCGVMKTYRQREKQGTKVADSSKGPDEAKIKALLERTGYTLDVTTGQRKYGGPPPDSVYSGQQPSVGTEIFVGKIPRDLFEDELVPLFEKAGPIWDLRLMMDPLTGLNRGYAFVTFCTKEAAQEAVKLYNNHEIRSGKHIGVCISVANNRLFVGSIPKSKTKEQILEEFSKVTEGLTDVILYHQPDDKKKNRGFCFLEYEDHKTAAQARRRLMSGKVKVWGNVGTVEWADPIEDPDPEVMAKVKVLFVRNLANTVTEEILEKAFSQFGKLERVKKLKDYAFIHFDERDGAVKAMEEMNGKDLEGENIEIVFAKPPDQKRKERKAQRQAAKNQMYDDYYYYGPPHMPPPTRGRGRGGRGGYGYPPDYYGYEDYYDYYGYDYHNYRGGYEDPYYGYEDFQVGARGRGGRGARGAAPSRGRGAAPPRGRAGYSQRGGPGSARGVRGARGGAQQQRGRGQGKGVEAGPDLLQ
Chain of FABP5 (Q01469 2-135 limits assumed): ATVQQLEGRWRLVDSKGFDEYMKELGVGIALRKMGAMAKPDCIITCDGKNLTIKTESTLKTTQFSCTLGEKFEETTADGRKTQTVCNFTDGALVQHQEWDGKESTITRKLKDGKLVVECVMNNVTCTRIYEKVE
Chain of HNRNPA1 (P09651 2-372 limits assumed): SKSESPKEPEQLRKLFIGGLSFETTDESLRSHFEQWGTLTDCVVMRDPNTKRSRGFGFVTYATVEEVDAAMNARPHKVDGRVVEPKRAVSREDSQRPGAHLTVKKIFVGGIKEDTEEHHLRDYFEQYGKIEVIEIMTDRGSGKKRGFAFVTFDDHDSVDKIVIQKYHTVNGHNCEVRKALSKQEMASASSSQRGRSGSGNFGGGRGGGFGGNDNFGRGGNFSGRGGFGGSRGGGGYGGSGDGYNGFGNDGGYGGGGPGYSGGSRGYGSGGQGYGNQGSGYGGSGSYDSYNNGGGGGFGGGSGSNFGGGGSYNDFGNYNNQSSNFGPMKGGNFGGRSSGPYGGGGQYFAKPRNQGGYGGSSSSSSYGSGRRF
Chain of TELO2 (human) (Q9Y4R8 whole entry): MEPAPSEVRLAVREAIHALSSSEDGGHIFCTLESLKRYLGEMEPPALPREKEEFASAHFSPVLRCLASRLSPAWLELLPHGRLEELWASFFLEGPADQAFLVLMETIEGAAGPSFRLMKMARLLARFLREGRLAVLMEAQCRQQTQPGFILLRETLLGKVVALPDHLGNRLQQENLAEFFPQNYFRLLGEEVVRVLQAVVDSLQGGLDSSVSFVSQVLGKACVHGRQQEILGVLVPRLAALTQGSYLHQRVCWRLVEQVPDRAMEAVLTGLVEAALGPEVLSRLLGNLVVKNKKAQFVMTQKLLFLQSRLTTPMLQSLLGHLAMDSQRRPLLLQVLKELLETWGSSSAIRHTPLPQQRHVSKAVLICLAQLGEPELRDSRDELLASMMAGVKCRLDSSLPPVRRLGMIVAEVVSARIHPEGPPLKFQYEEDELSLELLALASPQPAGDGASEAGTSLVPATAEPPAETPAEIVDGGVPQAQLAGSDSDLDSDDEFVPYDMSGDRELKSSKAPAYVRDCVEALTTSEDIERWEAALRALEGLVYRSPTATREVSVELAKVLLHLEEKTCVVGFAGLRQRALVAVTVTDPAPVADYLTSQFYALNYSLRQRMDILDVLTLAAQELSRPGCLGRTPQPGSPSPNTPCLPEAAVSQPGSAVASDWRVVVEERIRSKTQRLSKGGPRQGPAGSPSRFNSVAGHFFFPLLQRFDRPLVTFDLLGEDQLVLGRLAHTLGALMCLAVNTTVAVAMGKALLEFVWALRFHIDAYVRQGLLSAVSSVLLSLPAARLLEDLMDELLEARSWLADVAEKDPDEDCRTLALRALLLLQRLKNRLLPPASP
Chain of CHCHD3 (human) (Q9NX63 2-227 limits assumed): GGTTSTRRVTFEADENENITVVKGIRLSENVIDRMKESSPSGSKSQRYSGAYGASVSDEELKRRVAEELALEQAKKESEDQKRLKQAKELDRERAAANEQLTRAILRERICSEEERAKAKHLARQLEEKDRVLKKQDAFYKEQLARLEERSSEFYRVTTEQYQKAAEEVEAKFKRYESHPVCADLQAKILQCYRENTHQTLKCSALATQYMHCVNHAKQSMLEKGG
Chain of KCTD5 (human) (Q9NXV2 2-234 limits assumed): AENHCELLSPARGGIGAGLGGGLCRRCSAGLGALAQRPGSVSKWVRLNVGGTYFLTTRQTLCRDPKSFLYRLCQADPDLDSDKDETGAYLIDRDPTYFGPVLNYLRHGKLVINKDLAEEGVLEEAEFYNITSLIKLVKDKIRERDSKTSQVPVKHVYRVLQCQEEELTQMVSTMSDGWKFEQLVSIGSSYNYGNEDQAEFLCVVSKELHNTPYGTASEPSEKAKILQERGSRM

IgG control (Millipore Sigma 12-371) (antibody)
co-IP mass spectrometry count (EIF3A (human)): 3 | co-IP mass spectrometry count (RPS14 (human)): 9 | co-IP mass spectrometry count (IL13RA2 (human)): 0 | co-IP mass spectrometry count (DDX1 (human)): 2 | co-IP mass spectrometry count (LCN1 (human)): 9 | co-IP mass spectrometry count (PKM (human)): 2 | co-IP mass spectrometry count (RPS27A (human)): 11 | co-IP mass spectrometry count (RACK1 (human)): 0 | co-IP mass spectrometry count (CHCHD3 (human)): 10 | co-IP mass spectrometry count (KCTD5 (human)): 0 | co-IP mass spectrometry count (TBL2 (human)): 0 | co-IP mass spectrometry count (FLG (human)): 20 | co-IP mass spectrometry count (HNRNPM (human)): 5 | co-IP mass spectrometry count (MAP4 (human)): 0 | co-IP mass spectrometry count (RPL23 (human)): 5 | co-IP mass spectrometry count (RPL8 (human)): 3 | co-IP mass spectrometry count (TPM3 (human)): 5 | co-IP mass spectrometry count (GSN (human)): 0 | co-IP mass spectrometry count (PPFIBP1 (human)): 0 | co-IP mass spectrometry count (YBX1 (human)): 3 | co-IP mass spectrometry count (SYNCRIP (human)): 6 | co-IP mass spectrometry count (RPS26 (human)): 4 | co-IP mass spectrometry count (RHOT2 (human)): 0 | co-IP mass spectrometry count (GBF1 (human)): 0 | co-IP mass spectrometry count (RPL38 (human)): 5 | co-IP mass spectrometry count (TELO2 (human)): 0 | co-IP mass spectrometry count (RPL7 (human)): 5 | co-IP mass spectrometry count (CCT3 (human)): 0 | co-IP mass spectrometry count (SYNPO (human)): 4 | co-IP mass spectrometry count (DHX9 (human)): 0 | co-IP mass spectrometry count (RPL28 (human)): 3 | co-IP mass spectrometry count (SLIRP): 0 | co-IP mass spectrometry count (EEF1A1): 8 | co-IP mass spectrometry count (RPL36): 0 | co-IP mass spectrometry count (CTSD): 3 | co-IP mass spectrometry count (FABP5): 2 | co-IP mass spectrometry count (HNRNPA1): 4 | co-IP mass spectrometry count (UBA52): 5 | co-IP mass spectrometry count (YWHAZ): 0
